Data taken from the supplement of paper PMC9233669.
Variants at the floor of the assay were thinned out.

Experiments:
[1] = tested on: biotinyl-Met-oxazolone; experiment: self-aminoacylation, catalytic enhancement (BMO) (fold over background); higher = more active; k-Seq, kA / k0A0; sequences stand for … in GGGAAUGGAUCCACAUCUACGAAUUC…UUCACUGCAGACUUGACGAAGCUG
Procedure, shortened: (§1)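 Catalytic enhancement equals the median kA over the uncatalyzed rate, the latter read from the low-activity peak of a bimodal Gaussian fit. Values of kA came from fitting each sequence's fraction reacted to a pseudo-first-order model, with 1000 bootstraps. Reacted RNA was captured with streptavidin and quantified by triplicate qPCR and Illumina sequencing after 90 minutes at room temperature with 2–1250 μM biotinyl-aminoacyl-oxazolone and 0.43 μM mutagenized RNA pools bearing a 21-nt variable region.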

[2] = tested on: biotinyl-Ile-oxazolone; experiment: self-aminoacylation, catalytic enhancement (BIO) (fold over background); higher = more active; k-Seq, kA / k0A0; sequences stand for … in GGGAAUGGAUCCACAUCUACGAAUUC…UUCACUGCAGACUUGACGAAGCUG
Procedure, shortened: as §1

[3] = tested on: biotinyl-Trp-oxazolone; experiment: self-aminoacylation, catalytic enhancement (BWO) (fold over background); higher = more active; k-Seq, kA / k0A0; sequences stand for … in GGGAAUGGAUCCACAUCUACGAAUUC…UUCACUGCAGACUUGACGAAGCUG
Procedure, shortened: as §1

[4] = tested on: biotinyl-Leu-oxazolone; experiment: self-aminoacylation, catalytic enhancement (BLO) (fold over background); higher = more active; k-Seq, kA / k0A0; sequences stand for … in GGGAAUGGAUCCACAUCUACGAAUUC…UUCACUGCAGACUUGACGAAGCUG
Procedure, shortened: as §1

[5] = tested on: biotinyl-Val-oxazolone; experiment: self-aminoacylation, catalytic enhancement (BVO) (fold over background); higher = more active; k-Seq, kA / k0A0; sequences stand for … in GGGAAUGGAUCCACAUCUACGAAUUC…UUCACUGCAGACUUGACGAAGCUG
Procedure, shortened: as §1

[6] = tested on: biotinyl-Phe-oxazolone; experiment: self-aminoacylation, catalytic enhancement (BFO) (fold over background); higher = more active; k-Seq, kA / k0A0; sequences stand for … in GGGAAUGGAUCCACAUCUACGAAUUC…UUCACUGCAGACUUGACGAAGCUG
Procedure, shortened: as §1

Sequence | self-aminoacylation [1] | self-aminoacylation [2] | self-aminoacylation [3] | self-aminoacylation [4] | self-aminoacylation [5] | self-aminoacylation [6]
CAGCUUGCUAAUAGUCGCAAG [Fam3.1 aminoacylation ribozyme variant] | 1.72 | 1.82 | 1.72 | 1.89 | 1.86 | 2.54
CUACGUCAAGCAAUCGGUCUG [Fam1A.1 aminoacylation ribozyme variant] | 1.39 | 1.63 | 1.17 | 1.47 | 1.72 | 1.88
AUUAGCCUGGUCAUCGCGUGA [Fam2.1 aminoacylation ribozyme variant] | 21.7 | 10.3 | 22.6 | 22.3 | 11.2 | 165
AUUACCCUGGUCUUCGGGUGA [Fam2.1 aminoacylation ribozyme variant] | 8.38 | 4.68 | 9.66 | 9.51 | 5.66 | 48.9
AUUACCCUGCUCAUCGAGCGA [Fam2.1 aminoacylation ribozyme variant] | 1.3 | 1.12 | 0.81 | 1.4 | 0.851 | 0.874
AUUACCCUGGUCAUUCAGUGA [Fam2.1 aminoacylation ribozyme variant] | 4.7 | 3.33 | 6.28 | 5.37 | 3.16 | 14.1
AUUACCUUGGUGAUCGAGUGA [Fam2.1 aminoacylation ribozyme variant] | 4.39 | 2.25 | 5.81 | 4.39 | 2.32 | 19.7
CAACUUCAAAAAAUCGGUCUG [Fam1A.1 aminoacylation ribozyme variant] | 1.15 | 1.7 | 11.9 | 1.46 | 1.31 | 14.8
AUUACCCUGGUGAUAGAGUGA [Fam2.1 aminoacylation ribozyme variant] | 9.04 | 3.75 | 8.54 | 8.59 | 3.62 | 53.4
AUUACCCUGGUCAACGAGUGG [Fam2.1 aminoacylation ribozyme variant] | 1.49 | 1.04 | 1.78 | 1.38 | 1.09 | 2.19
AUUCAUCUAGGUCACCGGGUG [Fam2.2 aminoacylation ribozyme variant] | 5.35 | 3.85 | 5.32 | 6.82 | 3.34 | 36.8
AUUACCCUGGUCUUCGAGUGA [Fam2.1 aminoacylation ribozyme variant] | 5.36 | 3.09 | 6.84 | 5.52 | 3.3 | 26.4
AUGCACCUAGGUCAUCGGGUU [Fam2.2 aminoacylation ribozyme variant] | 4.43 | 3.66 | 4.05 | 4.54 | 3.24 | 5.22
AAGUUUGCUUAUGGUCGCAAG [Fam3.1 aminoacylation ribozyme variant] | 0.728 | 0.54 | 0.782 | 0.603 | 0.727 | 0.863
AUUCACCGAGGUCAUAGGGUG [Fam2.2 aminoacylation ribozyme variant] | 2.29 | 1.71 | 2.21 | 3.17 | 1.91 | 7.43
AUUACCCUGGUCAUAGCGUGA [Fam2.1 aminoacylation ribozyme variant] | 8.87 | 4.12 | 10.6 | 9.18 | 4.99 | 51.8
CAUCACUUCAAGCAAUCGGUC [Fam1B.1 aminoacylation ribozyme variant] | 1.09 | 1.17 | 15.6 | 1.47 | 1.2 | 32.7
AUGACCCUGGUCGUCGAGUGA [Fam2.1 aminoacylation ribozyme variant] | 1.25 | 1.01 | 0.916 | 1.38 | 0.888 | 4.65
CUGCUUCAAACAAUCGGUCCG [Fam1A.1 aminoacylation ribozyme variant] | 1.34 | 1.35 | 39.6 | 2.38 | 1.38 | 119
AUGUUUGCUAAUAGUCACAAG [Fam3.1 aminoacylation ribozyme variant] | 1.17 | 1.24 | 2.35 | 1.07 | 1.01 | 5.37
CUACUUCAAAGAAUCGGUUUG [Fam1A.1 aminoacylation ribozyme variant] | 0.933 | 0.892 | 4.68 | 0.845 | 0.785 | 5.29
AAGUUUGCUAAUAGUCGCUAC [Fam3.1 aminoacylation ribozyme variant] | 0.57 | 0.54 | 0.666 | 0.476 | 0.697 | 0.82
AUUGCCCUGGUCAUCGAGUGA [Fam2.1 aminoacylation ribozyme variant] | 53.1 | 20.6 | 60 | 51.2 | 23.7 | 367
